This passage reports %Blocking results from patent publication US20250313625A1.

Where two headings read alike, the source gives them in different places.

Experiment [1] addresses mFc tagged human LAG3 ECD recombinant protein (human) (UniProt P18627). As to the kind of experiment: competitive ELISA: mFc tagged human LAG3 ECD binding to plate coated LSECtin ECD. (In general: In an ELISA, binding on a coated surface is turned into a signal by an enzyme label.)
For experiment [2] the target is unchanged. As to the kind of experiment: competitive FACS: mFc tagged human LAG3 ECD binding to MHC II on Raji cells.
For experiment [3] the target is unchanged. The experiment is described as above. The source holds these as a separate data set.

Chain of mFc tagged human LAG3 ECD recombinant protein (human) (P18627 23-450): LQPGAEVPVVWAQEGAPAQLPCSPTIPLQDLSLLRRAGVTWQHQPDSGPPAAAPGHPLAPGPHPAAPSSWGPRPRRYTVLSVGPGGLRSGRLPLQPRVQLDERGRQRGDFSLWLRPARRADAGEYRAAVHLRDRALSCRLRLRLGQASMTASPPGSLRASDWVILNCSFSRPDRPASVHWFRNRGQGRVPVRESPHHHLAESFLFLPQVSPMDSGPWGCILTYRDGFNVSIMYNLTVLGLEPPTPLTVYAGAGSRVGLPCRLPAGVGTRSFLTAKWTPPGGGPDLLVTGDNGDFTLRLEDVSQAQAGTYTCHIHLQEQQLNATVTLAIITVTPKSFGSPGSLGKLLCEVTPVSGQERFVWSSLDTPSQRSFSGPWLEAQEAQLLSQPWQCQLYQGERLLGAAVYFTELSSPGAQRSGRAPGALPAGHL

As to hIgG4 (antibody), in experiment [1], the %Blocking at 4 nM came out at 1.3%, the %Blocking at 20 nM was 5.6% and the %Blocking at 100 nM worked out at 7.4%. Moreover, in experiment [2], the %Blocking at 2 nM was 5.7% and the %Blocking at 8 nM stood at 3.4%. The %Blocking at 8 nM in experiment [3] is 10.9%.
